Measurements taken from patent US11906524B2, “Urea biosensors and uses thereof” (Duke University, priority 2015, dated 2024).

Assay: Temperature- and urea-dependent fluorescence landscapes of fluorescent conjugates (Roche LightCycler)
Assay type: binding
Design: key: y, yes; n, no
Conditions: fluorescent response to urea
Procedure: We constructed 20 single cysteine mutants in csUBP7, exploring 7 endosteric, 12 peristeric, and 1 allosteric position (FIG. 9). At each position we attached the Prodan-derived fluorophores Acrylodan and Badan, which differ by one methylene group in their thiol-reactive linker. The fluorescent responses of these conjugates was determined initially as a function of urea concentration and temperature (FIG. 10). […] The ligand dependence of the emission spectra shapes was determined for these conjugates (Table 8).
Determination of temperature- and ligand-dependent fluorescence landscapes. […] Urea concentrations were varied from 0-4.8 M in 20 mM KCl, 20 mM MOPS (pH 7.4). […] Temperatures were advanced in 1K steps.
Ratiometric analysis of urea binding. […] 2
For a single urea-binding site, the fractional saturation is given by
[formula] where [L] is the ligand (urea) concentration and Kd the dissociation constant, ^trueKd for ytrue.
To obtain the temperature dependence of the binding reaction, the Kd values of all the individually determined isotherms were fit the Gibbs-Hemholtz equation (Layton and Hellinga, 2010, Biochemistry, 49, 10831-41):
[formula] where ΔGb^•(T) is the standard free energy of binding at 1 M ligand at temperature T,
[formula] Δ^refHb^• and Δ^refSb^• the molar enthalpy and entropy of binding, respectively, at the reference temperature, Tref, and ΔCp,b the heat capacity of the binding reaction.

| Molecule | Response (Acrylodan conjugate) | Response (Badan conjugate) |
| --- | --- | --- |
| csUBP7 S65C: csUBP7 65C cysteine mutant (SEQ ID NO: 26), tested as Acrylodan and Badan conjugates (conjugate, Acrylodan or Badan conjugate; csUBP7_65C (65C substitution mutant with signal peptide replaced with M and a GGSHHHHHH at C-terminus, and also comprising a C89A substitution)) MSSSESEKEKSEETIKVGILHSLSGTMSISEVSLKDAELMAIEEINNNGGVLGKKLEPIVEDGACDWPTFAEKAKKLLQKDKVAVIFGAWTSASRKAVLPVVEENNGLLFYPVQYEGLESSPNIFYMGAAPNQQIVPAVKWLFDNGKKRFYLLGSDYVFPRTANKIIKAYLKYLGGVVVGEEYTPLGHTDYSSVINKIKAAKPDVVFNTLNGDSNVAFFKQLKDAGIDANTLPVMSVSIAEEEIKGIGPEYLKGHLVTWNYFQSVDTPENKEFVEKYKKKYGEDRVTDDPIEAAYIGVYLWAKAVEKAGSTDVDKVREAAKGIEFNAPEGPVKIDGDNQHLYKTVRIGEILENGQIRELWKTNKPVKPDPYLKGYEWAQGLSEQGGSHHHHHH | n | y |
| csUBP7 S92C: csUBP7 92C cysteine mutant (SEQ ID NO: 30), tested as Acrylodan and Badan conjugates (conjugate, Acrylodan or Badan conjugate; csUBP7_92C (92C substitution mutant with signal peptide replaced with M and a GGSHHHHHH at C-terminus, and also comprising a C89A substitution)) MSSSESEKEKSEETIKVGILHSLSGTMSISEVSLKDAELMAIEEINNNGGVLGKKLEPIVEDGASDWPTFAEKAKKLLQKDKVAVIFGAWTCASRKAVLPVVEENNGLLFYPVQYEGLESSPNIFYMGAAPNQQIVPAVKWLFDNGKKRFYLLGSDYVFPRTANKIIKAYLKYLGGVVVGEEYTPLGHTDYSSVINKIKAAKPDVVFNTLNGDSNVAFFKQLKDAGIDANTLPVMSVSIAEEEIKGIGPEYLKGHLVTWNYFQSVDTPENKEFVEKYKKKYGEDRVTDDPIEAAYIGVYLWAKAVEKAGSTDVDKVREAAKGIEFNAPEGPVKIDGDNQHLYKTVRIGEILENGQIRELWKTNKPVKPDPYLKGYEWAQGLSEQGGSHHHHHH | n | n |
| csUBP7 A93C: csUBP7 93C cysteine mutant (SEQ ID NO: 31), tested as Acrylodan and Badan conjugates (conjugate, Acrylodan or Badan conjugate; csUBP7_93C (93C substitution mutant with signal peptide replaced with M and a GGSHHHHHH at C-terminus, and also comprising a C89A substitution)) MSSSESEKEKSEETIKVGILHSLSGTMSISEVSLKDAELMAIEEINNNGGVLGKKLEPIVEDGASDWPTFAEKAKKLLQKDKVAVIFGAWTSCSRKAVLPVVEENNGLLFYPVQYEGLESSPNIFYMGAAPNQQIVPAVKWLFDNGKKRFYLLGSDYVFPRTANKIIKAYLKYLGGVVVGEEYTPLGHTDYSSVINKIKAAKPDVVFNTLNGDSNVAFFKQLKDAGIDANTLPVMSVSIAEEEIKGIGPEYLKGHLVTWNYFQSVDTPENKEFVEKYKKKYGEDRVTDDPIEAAYIGVYLWAKAVEKAGSTDVDKVREAAKGIEFNAPEGPVKIDGDNQHLYKTVRIGEILENGQIRELWKTNKPVKPDPYLKGYEWAQGLSEQGGSHHHHHH | y | n |
| csUBP7 Y111C: csUBP7 111C cysteine mutant (SEQ ID NO: 33), tested as Acrylodan and Badan conjugates (conjugate, Acrylodan or Badan conjugate; csUBP7_111C (111C substitution mutant with signal peptide replaced with M and a GGSHHHHHH at C-terminus, and also comprising a C89A substitution)) MSSSESEKEKSEETIKVGILHSLSGTMSISEVSLKDAELMAIEEINNNGGVLGKKLEPIVEDGASDWPTFAEKAKKLLQKDKVAVIFGAWTSASRKAVLPVVEENNGLLFCPVQYEGLESSPNIFYMGAAPNQQIVPAVKWLFDNGKKRFYLLGSDYVFPRTANKIIKAYLKYLGGVVVGEEYTPLGHTDYSSVINKIKAAKPDVVFNTLNGDSNVAFFKQLKDAGIDANTLPVMSVSIAEEEIKGIGPEYLKGHLVTWNYFQSVDTPENKEFVEKYKKKYGEDRVTDDPIEAAYIGVYLWAKAVEKAGSTDVDKVREAAKGIEFNAPEGPVKIDGDNQHLYKTVRIGEILENGQIRELWKTNKPVKPDPYLKGYEWAQGLSEQGGSHHHHHH | n | n |
| csUBP7 Q114C: csUBP7 114C cysteine mutant (SEQ ID NO: 34), tested as Acrylodan and Badan conjugates (conjugate, Acrylodan or Badan conjugate; csUBP7_114C (114C substitution mutant with signal peptide replaced with M and a GGSHHHHHH at C-terminus, and also comprising a C89A substitution)) MSSSESEKEKSEETIKVGILHSLSGTMSISEVSLKDAELMAIEEINNNGGVLGKKLEPIVEDGASDWPTFAEKAKKLLQKDKVAVIFGAWTSASRKAVLPVVEENNGLLFYPVCYEGLESSPNIFYMGAAPNQQIVPAVKWLFDNGKKRFYLLGSDYVFPRTANKIIKAYLKYLGGVVVGEEYTPLGHTDYSSVINKIKAAKPDVVFNTLNGDSNVAFFKQLKDAGIDANTLPVMSVSIAEEEIKGIGPEYLKGHLVTWNYFQSVDTPENKEFVEKYKKKYGEDRVTDDPIEAAYIGVYLWAKAVEKAGSTDVDKVREAAKGIEFNAPEGPVKIDGDNQHLYKTVRIGEILENGQIRELWKTNKPVKPDPYLKGYEWAQGLSEQGGSHHHHHH | n | n |
| csUBP7 Y115C: csUBP7 115C cysteine mutant (SEQ ID NO: 35), tested as Acrylodan and Badan conjugates (conjugate, Acrylodan or Badan conjugate; csUBP7_115C (115C substitution mutant with signal peptide replaced with M and a GGSHHHHHH at C-terminus, and also comprising a C89A substitution)) MSSSESEKEKSEETIKVGILHSLSGTMSISEVSLKDAELMAIEEINNNGGVLGKKLEPIVEDGASDWPTFAEKAKKLLQKDKVAVIFGAWTSASRKAVLPVVEENNGLLFYPVQCEGLESSPNIFYMGAAPNQQIVPAVKWLFDNGKKRFYLLGSDYVFPRTANKIIKAYLKYLGGVVVGEEYTPLGHTDYSSVINKIKAAKPDVVFNTLNGDSNVAFFKQLKDAGIDANTLPVMSVSIAEEEIKGIGPEYLKGHLVTWNYFQSVDTPENKEFVEKYKKKYGEDRVTDDPIEAAYIGVYLWAKAVEKAGSTDVDKVREAAKGIEFNAPEGPVKIDGDNQHLYKTVRIGEILENGQIRELWKTNKPVKPDPYLKGYEWAQGLSEQGGSHHHHHH | n | n |
| csUBP7 V158C: csUBP7 158C cysteine mutant (SEQ ID NO: 38), tested as Acrylodan and Badan conjugates (conjugate, Acrylodan or Badan conjugate; csUBP7_158C (158C substitution mutant with signal peptide replaced with M and a GGSHHHHHH at C-terminus, and also comprising a C89A substitution)) MSSSESEKEKSEETIKVGILHSLSGTMSISEVSLKDAELMAIEEINNNGGVLGKKLEPIVEDGASDWPTFAEKAKKLLQKDKVAVIFGAWTSASRKAVLPVVEENNGLLFYPVQYEGLESSPNIFYMGAAPNQQIVPAVKWLFDNGKKRFYLLGSDYCFPRTANKIIKAYLKYLGGVVVGEEYTPLGHTDYSSVINKIKAAKPDVVFNTLNGDSNVAFFKQLKDAGIDANTLPVMSVSIAEEEIKGIGPEYLKGHLVTWNYFQSVDTPENKEFVEKYKKKYGEDRVTDDPIEAAYIGVYLWAKAVEKAGSTDVDKVREAAKGIEFNAPEGPVKIDGDNQHLYKTVRIGEILENGQIRELWKTNKPVKPDPYLKGYEWAQGLSEQGGSHHHHHH | n | n |
| csUBP7 F159C: csUBP7 159C cysteine mutant (SEQ ID NO: 39), tested as Acrylodan and Badan conjugates (conjugate, Acrylodan or Badan conjugate; csUBP7_159C (159C substitution mutant with signal peptide replaced with M and a GGSHHHHHH at C-terminus, and also comprising a C89A substitution)) MSSSESEKEKSEETIKVGILHSLSGTMSISEVSLKDAELMAIEEINNNGGVLGKKLEPIVEDGASDWPTFAEKAKKLLQKDKVAVIFGAWTSASRKAVLPVVEENNGLLFYPVQYEGLESSPNIFYMGAAPNQQIVPAVKWLFDNGKKRFYLLGSDYVCPRTANKIIKAYLKYLGGVVVGEEYTPLGHTDYSSVINKIKAAKPDVVFNTLNGDSNVAFFKQLKDAGIDANTLPVMSVSIAEEEIKGIGPEYLKGHLVTWNYFQSVDTPENKEFVEKYKKKYGEDRVTDDPIEAAYIGVYLWAKAVEKAGSTDVDKVREAAKGIEFNAPEGPVKIDGDNQHLYKTVRIGEILENGQIRELWKTNKPVKPDPYLKGYEWAQGLSEQGGSHHHHHH | n | n |
